{"source": "patent US20220305082A1", "about": "(CENTRICSBIO, published 2022)", "binders": {"B1": {"name": "anti-CD300c monoclonal antibody CL7 (antibody, V domains shown)", "VH": "EVQLLESGGGLVQPGGSLRLSCAASGFTFSRYAMSWVRQAPGKGLEWVSAISGSGGSTYYADSVKGRFTISRDNSKNTLYLQMNSLRAEDTAVYYCARSSQGIFDIWGQGTLVTVSS", "VL": "QSVLTQPPSASGTPGQRVTISCSGNNIGTRRVHWYQQLPDTAPKLLIYSKNNRPSGVPDRFSGSKSGTSASLAISGLRSEDEADYYCAAWDDSLSGPVFGGGTKLTVL", "notes": "Full antibody from separate heavy and light chain vectors in 293T cells"}, "B2": {"name": "anti-CD300c monoclonal antibody CL10 (antibody, V domains shown)", "VH": "EVQLLESGGGLVQPGGSLRLSCAASGFTFSSYGMHWVRQAPGKGLEWVSAISGSGGSTYYADSVKGRFTISRDNSKNTLYLQMNSLRAEDTAVYYCASGYGLMDVWGQGTLVTVSS", "VL": "QSVLTQPPSASGTPGQRVTISCTRSSGIIASNYVQWYQQLPGTAPKLLIYRNNQRPSGVPDRFSGSKSGTSASLAISGLRSEDEADYYCSSYAGNNNLVFGGGTKLTVL"}, "B3": {"name": "anti-CD300c monoclonal antibody SL18 (antibody, V domains shown)", "VH": "RVQLLESGGGLVQPGGSLRLSCAASGFTFSDYHMHWVRQAPGKGLEWVSTISSSGGYTYYAESVKSRFTISRDNSKNTLYLQMNSLRAEDTAVYYCARSIRLPLDYWGQGTLVTVSS", "VL": "QSVLTQPPSASGTPGQRVTISCSGNNIGSKGVHWYQQLPGTAPKLLIYEDSKRPSGVRDRFSGSKSGTSASLAISGLRSEDEADYYCQSYDSTKGVVFGGGTKLTVL"}}, "key": {"[1]": {"molecular_target": "T1, mouse CD300c antigen (mouse)", "T1 sequence (A2A7V7 whole entry, looked up)": "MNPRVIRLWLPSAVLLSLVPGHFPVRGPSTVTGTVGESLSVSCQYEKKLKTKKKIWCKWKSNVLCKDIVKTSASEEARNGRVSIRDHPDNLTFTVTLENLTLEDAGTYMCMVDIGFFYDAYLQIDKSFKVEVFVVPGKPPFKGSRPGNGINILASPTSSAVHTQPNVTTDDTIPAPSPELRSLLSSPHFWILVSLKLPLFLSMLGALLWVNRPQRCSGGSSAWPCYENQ", "experiment": "cell-based or functional assay"}, "[2]": {"molecular_target": "T2, CD300a antigen (12449-H08H, Sino Biological) (UniProt Q9UGN4 18-180)", "T2 construct": "Bought recombinant antigen", "T2 sequence (looked up)": "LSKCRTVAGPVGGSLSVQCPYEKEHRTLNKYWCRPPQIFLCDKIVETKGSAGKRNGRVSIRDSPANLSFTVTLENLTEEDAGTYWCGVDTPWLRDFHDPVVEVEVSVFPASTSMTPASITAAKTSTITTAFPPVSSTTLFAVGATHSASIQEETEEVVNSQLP", "experiment": "binding ELISA with CD300a antigen", "procedure": "To identify the antigen-binding ability of the anti-CD300c monoclonal antibody produced in Example 1, binding ELISA was performed. Specifically, each of the CD300c antigen (11832-H08H, Sino Biological) or CD300a antigen (12449-H08H, Sino Biological) in a coating buffer (0.1 M sodium carbonate, pH 9.0) was dispensed onto an ELISA plate at a concentration of 8 μg/mL per well, and then reaction was allowed to proceed at room temperature for 3 hours so that the antigen was bound to the plate. Washing was performed 3 times using phosphate buffered saline-Tween 20 (PBST) to remove unbound antigen, and then 300 μL of PBST supplemented with 5% bovine serum albumin (BSA) was added to each well. Reaction was allowed to proceed at room temperature for 1 hour, and washing was performed again using PBST. Then, the anti-CD300c monoclonal antibody was diluted in quadruplicate and added thereto. Reaction was allowed to proceed for 1 hour at room temperature for antigen binding. After 1 hour, washing was performed 3 times using PBST to remove unbound anti-CD300c monoclonal antibody, and then 4 μg/mL of an antibody for detection (HRP conjugated anti-Fc IgG) was added. […] Then, 2 N sulfuric acid solution was added to terminate the development, and the absorbance was measured at 450 nm to identify the antibodies that specifically bind to the CD300c antigen. […]"}}, "data": [{"binder": "B1", "values": [{"measurement": "cancer cell proliferation inhibitory effects (CT26 mouse colorectal cancer cell line, CCK-8), higher than the control group", "setting": "[1]", "result": 66, "unit": "%"}, {"measurement": "binding result", "setting": "[2]", "result": "no binding (tested: 0.039, 0.63, and 10 µg/mL)"}]}, {"binder": "B2", "values": [{"measurement": "cancer cell proliferation inhibitory effects (CT26 mouse colorectal cancer cell line, CCK-8), higher than the control group", "setting": "[1]", "result": 15, "unit": "%"}]}, {"binder": "B3", "values": [{"measurement": "cancer cell proliferation inhibitory effects (CT26 mouse colorectal cancer cell line, CCK-8), higher than the control group", "setting": "[1]", "result": 38, "unit": "%"}]}]}
